Measured values as given in US20030186281A1, “Modified tetracycline repressor protein compositions and methods of use” (priority 2001, published 2003).

System: tet operator sequence
Test: β-galactosidase activity of a tetracycline-regulated promoter in transformed E. coli with revTetR, in the presence and absence of anhydrotetracycline (atc)
Assay type: cell-based, Escherichia coli
Details: for β-Galactosidase Activity, Cultured Without ATC: RevTetR isolate cultured in the absence of anhydrotetracycline (ATC); for β-Galactosidase Activity, Cultured With ATC: RevTetR isolate cultured in the presence of anhydrotetracycline (ATC)
Summary of the method: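 TetR(BD) chimera mutants (TetR(B) residues 1–50, TetR(D) 51–208) expressed in E. coli regulating a tet operator-controlled lacZ. β-Galactosidase measured in Miller units at 28 °C and 37 °C with and without anhydrotetracycline; reported as percent of maximal expression without Tet repressor.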

| Molecule | β-Galactosidase Activity, Cultured Without ATC | β-Galactosidase Activity, Cultured With ATC |
| --- | --- | --- |
| TetRrev29/42: revTetR(BD) E19D G96R (protein, Modified tetracycline repressor, revTetR(BD) E19D G96R) MSRLDKSKVINSALDLLNEVGIEGLTTRKLAQKLGVEQPTLYWHVKNKRALLDALAVEILARHHDYSLPAAGESWQSFLRNNAMSFRRALLRYRDRAKVHLGTRPDEKQYDTVETQLRFMTENGFSLRDGLYAISAVSHFTLGAVLEQQEHTAALTDRPAAPDENLPPLLREALQIMDSDDGEQAFLHGLESLIRGFEVQLTALLQIV | 96.187 | 11.861 |
| TetRrev29/52: revTetR(BD) L14V L17V N18K V20V G24G (protein, Modified tetracycline repressor, revTetR(BD) L14V L17V N18K V20V G24G) MSRLDKSKVINSAVELVKEVGIEGLTTRKLAQKLGVEQPTLYWHVKNKRALLDALAVEILARHHDYSLPAAGESWQSFLRNNAMSFRRALLRYRDGAKVHLGTRPDEKQYDTVETQLRFMTENGFSLRDGLYAISAVSHFTLGAVLEQQEHTAALTDRPAAPDENLPPLLREALQIMDSDDGEQAFLHGLESLIRGFEVQLTALLQIV | 48.4964 | 3.3035 |
| TetRrevAtc4-1: revTetR(BD) A50S D53F A56G V57I H63Q (protein, Modified tetracycline repressor, revTetR(BD) A50S D53F A56G V57I H63Q) MSRLDKSKVINSALELLNEVGIEGLTTRKLAQKLGVEQPTLYWHVKNKRSLLFALGIEILARQHDYSLPAAGESWQSFLRNNAMSFRRALLRYRDGAKVHLGTRPDEKQYDTVETQLRFMTENGFSLRDGLYAISAVSHFTLGAVLEQQEHTAALTDRPAAPDENLPPLLREALQIMDSDDGEQAFLHGLESLIRGFEVQLTALLQIV | 100.076 | 6.9011 |
